# Source: US20210261685A1 (Alector, published 2021)
# T1: human Axl ECD construct (Full Axl) with linker+His+Avi tag (human, UniProt P30530 26-451)
# T1 construct: tested as Expi293 supernatant; also called ECD domain of human Axl
# T1 sequence: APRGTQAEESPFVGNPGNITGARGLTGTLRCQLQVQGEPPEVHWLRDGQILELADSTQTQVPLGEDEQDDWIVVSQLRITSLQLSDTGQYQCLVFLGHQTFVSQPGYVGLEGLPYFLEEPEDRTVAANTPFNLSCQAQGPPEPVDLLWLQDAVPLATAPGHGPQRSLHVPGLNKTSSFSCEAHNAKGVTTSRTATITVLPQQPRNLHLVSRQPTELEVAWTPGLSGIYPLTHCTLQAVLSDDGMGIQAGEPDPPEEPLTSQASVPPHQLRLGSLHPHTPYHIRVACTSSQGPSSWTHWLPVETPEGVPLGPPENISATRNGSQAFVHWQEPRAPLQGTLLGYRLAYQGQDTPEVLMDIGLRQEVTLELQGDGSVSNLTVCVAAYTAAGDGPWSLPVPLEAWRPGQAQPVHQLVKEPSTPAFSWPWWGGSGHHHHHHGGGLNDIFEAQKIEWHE
# T2: human MerTK endogenously expressed on cells (SK-MEL-5 cells; human macrophages) (human, UniProt Q12866 21-999)
# T2 construct: also called MerTK on SK-MEL-5
# T2 sequence: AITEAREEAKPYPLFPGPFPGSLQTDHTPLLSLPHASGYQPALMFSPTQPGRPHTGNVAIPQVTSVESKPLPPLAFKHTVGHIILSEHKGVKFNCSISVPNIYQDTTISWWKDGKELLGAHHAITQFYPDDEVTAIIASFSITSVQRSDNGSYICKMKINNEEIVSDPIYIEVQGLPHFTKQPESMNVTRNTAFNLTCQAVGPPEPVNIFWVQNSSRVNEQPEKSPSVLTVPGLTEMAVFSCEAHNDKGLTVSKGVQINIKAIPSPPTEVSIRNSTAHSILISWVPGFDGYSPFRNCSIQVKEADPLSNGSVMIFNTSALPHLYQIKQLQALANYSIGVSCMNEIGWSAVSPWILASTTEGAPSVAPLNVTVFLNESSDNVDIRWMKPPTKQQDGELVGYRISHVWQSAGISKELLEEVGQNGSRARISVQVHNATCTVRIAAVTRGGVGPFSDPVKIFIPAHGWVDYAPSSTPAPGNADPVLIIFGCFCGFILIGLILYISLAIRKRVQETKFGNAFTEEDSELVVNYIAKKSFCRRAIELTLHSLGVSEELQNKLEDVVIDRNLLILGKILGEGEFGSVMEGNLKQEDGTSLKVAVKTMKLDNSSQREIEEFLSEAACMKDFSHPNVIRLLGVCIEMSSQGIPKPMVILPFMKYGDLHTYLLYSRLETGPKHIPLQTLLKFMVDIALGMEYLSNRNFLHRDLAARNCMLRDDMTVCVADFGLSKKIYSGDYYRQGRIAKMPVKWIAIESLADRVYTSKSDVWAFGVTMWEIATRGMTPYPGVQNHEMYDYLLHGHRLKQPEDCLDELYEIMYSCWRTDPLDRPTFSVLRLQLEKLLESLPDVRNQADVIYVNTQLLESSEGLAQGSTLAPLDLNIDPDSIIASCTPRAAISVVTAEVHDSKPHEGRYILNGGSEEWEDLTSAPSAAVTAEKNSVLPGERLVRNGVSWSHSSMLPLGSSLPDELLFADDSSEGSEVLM
# Experiments:
# [1] = molecular target: T1, human Axl ECD construct (Full Axl) with …; experiment: SPR, Carterra LSA, antibody immobilised, construct supernatant injected
# Method: Binding of anti-MerTK antibodies of the present disclosure to these domain-swapped chimera or deletion mutants (prepared as described above) was tested by Surface Plasmon Resonance (SPR) using Carterra LSA. Purified anti-MerTK antibodies were immobilized in duplicate on a HC30M chip (Carterra) by amine coupling, following the manufacturer's instructions (described previously). Supernatants containing the constructs were diluted 1:1 with running buffer containing 0.5 mg/mL BSA (HBS-TE, Carterra) and injected over the immobilized antibodies. The surface was regenerated with 10 mM Glycine pH2.0 after each construct injection. Sensorgrams were analyzed using Carterra Epitope software to identify patterns of construct binding. Loss of binding to MerTK constructs with domains deleted or swapped in from Axl and/or gain of binding to Axl constructs with MerTK domains swapped in were evaluated. Data from these studies was used to construct a domain binding map for anti-MerTK antibodies and their binding to various domains of human MerTK.
# [2] = molecular target: T2, human MerTK endogenously expressed on …; experiment: flow cytometry on SK-MEL-5 cells (endogenous human MerTK), APC anti-human kappa detection, MFI
# Method: To determine whether recombinant anti-human MerTK antibodies of the present disclosure bind to human MerTK endogenously expressed on SK-MEL-5 cells and to CHO cells overexpressing mouse MerTK (CHO-muMerTK OE cells), the following experiments were performed. SK-MEL-5 cells and CHO-muMerTK OE cells were plated at 40,000 cells/well. Anti-MerTK antibodies were titrated to a final concentration range of between 66.6 nM to 4 pM and then added to the cells. After 30 min on ice, cells were washed and then stained with APC-conjugated mouse anti-human Kappa antibody (Southern Biotech Cat #9230-11, Birmingham, Ala.) and a viability die (Life Technologies) in the presence of Fc block solution on ice for 30 minutes, and then washed twice with cold FACS buffer (2% FBS in PBS). Cells were fixed with 4% paraformaldehyde in PBS. Stained cells were acquired on a BD FACS Canto II cytometer and the mean fluorescence intensity (MFI) was calculated with FlowJo software and K value was calculated with Prism software. […] A lower Kd value reflects higher binding of antibody to cells.
binding result [1],EC50 (read off the curve) [2] [nM],Binder
no binding,~2,"MTK-16 (antibody, human IgG1, V domains shown) VH: LIQLVQSGPELKKPGETVKISCKASGYTFTNHGMNWVKQDPGKGLKWMGWINTYTGEPTYADDFKGRFVFSMETSASAAFLQINNLKNEDTATYFCARKGVTAARYFDYWGQGTTLTVSS VL: DIVMTQSPKFMSTSVGDRVSITCKASQNVRTAVAWYKKKPGQSPKALINLASNRHTGVPDRFTGSGSGTDFTLTISNVQSEDLADYFCLQHWNYPLTFGGGTKLEIK"
no binding,~0.3,"MTK-10 (antibody, human IgG1, V domains shown) VH: QVTLKESGPGILQPSQTLSLTCSFSGFSLTTSGMGVGWIRQPSGKGLEWLAHIWSDDDKRSNPALKSRLTISQDSSTNQVFLKIASVDTADSATYYCSHLTPVREFAYWGPGTLVTVSE VL: DIQMTQTTSSLSASLGDRVTISCSASQGISNYLNWFQQKPDGTVKLLIYYTSRLHSGVPSRFSGSGSGTDFSLTISNLEPEDIATYYCQQYTKLPYTFGGGTKLEIK"
no binding,,"MTK-29 (antibody, human IgG1, V domains shown) VH: QIQLVQSGPELKKPGETVKISCKSSGFTFTTYGMSWVKQAPGKGLKWMGWINTYSGVPTYTDDFKGRFAFSLETSASTASLQINNLKNEDTATYFCARYTNYGYFDYWGQGTTLTVSS VL: QIVLSQSPAILSASPGEKVTMTCRATSSVGYMHWYQQKPGSSPKPWIYATSNLASGVPARFSGSGSGTSYSLTISRVEAEHAATYYCQQWGSNPFTFGSGTKLEIK"
no binding,~0.2,"MTK-15 (antibody, human IgG1, V domains shown) VH: QIQLVQSGPELKKPGETVKISCKASGYTFTNYGVHWVKQAPGKGLKWMGWINTYTGEPTYADDFKGRFAFSLETSASTAYLQINNLKNEDMATYFCARGNRYAYMDYWGQGTSVTVSS VL: QIVLSQSPAILSASPGEKVTMTCRASSSVSYMHWYQQKSGSSPKPWIYATSNLASGVPARFSGSGSGTSYSLTISRVEAEDAATYYCQQWSSNPRTFGGGTKLEIK"
no binding,~0.2,"MTK-06 (antibody, human IgG1, V domains shown) VH: QIQLVQSGPELKKPGETVKISCKASGYTFTNYGMNWVKQAPGKGLKWMGWINTNTGEPTYAEEFKGRFAFSLETSASTAYLQINNLKNEDTATYFCARYYNYWYFDVWGAGTTVTVSS VL: QIVLSQSPAILSASPGEKVTMTCRASSSVSYMHWYQQKPGSSPKPWIYATSNLASGVPARFSGSGSGTSYSLTISRVEAEDAATYYCQQWSSKPPTFGGGTKLEIK"

# Continued, binder first:
Binder,binding result [1],EC50 (read off the curve) [2] [nM]
"MTK-30 (antibody, human IgG1, V domains shown) VH: QVQLQQPGTELVRPGASVKLSCKASGYTFTSYWMHWVKQRPGQGLEWIGNLNPNNGGTYYNEKFKSKATLTVDKSSSTAYMQLSSLTSEDSAVYYCARQILLYFDYWGQGTTLTVSS VL: DVLMTQTPLSLPVSLGDQASISCRSSQSIVHSNGDTYLEWYLQKPGQSPKLLIYKVSNRFSGVPDRFSGSGSGTDFTLKISRVEAEDLGVYYCFQGSHVPWTFGGGTKLEIK",no binding,
"MTK-33 (antibody, human IgG1, V domains shown) VH: QVQLQQPGPELVRPGTSVKLSCKASGYTFTSYWMHWIKQRPGQGLEWIGVIDPSDNYINYNQKFKGKATLTVDTSSSTAYLQLSSLTSEDSAVYYCAREAGTRGYFDYWGQGTTLTVSS VL: SIVMTQTPKFLLVSAGDRVIITCKASQSVSNTVAWYQQKPGQSPKLLIYYASNRYTGVPDRFTGSGYGTDFTFTISTVQAEDLAVYFCQQDYRSPFTFGSGTQLEMK",no binding,
"MTK-21 (antibody, human IgG1, V domains shown) VH: QIQLVQSGPELKKPGETVKISCKASGYTFTNFGMTWVRQAPGMDLKWMGWINTYTGEPKYADDFKGRFALSLETSASTAYLQITNFKNEDTATYFCARGGGRLGLRPLDYWGQGTTLTVSS VL: DIQMTQTTSSLSASLGDRVTISCRASQDINNYLNWYQQKPDGTVKLLIYYTSSLHSGVPSRFSGSGSGTDYSLTITNLEQEDIATYFCQQGNTLPWTFGGGTRLEIK",no binding,
"MTK-13 (antibody, human IgG1, V domains shown) VH: DVQLQESGPGLVKPSQSLSLTCSVTGYSITSGYYWNWIRQFPGNKLEWMGNIDYDGSNKYNPSLKNRISITRDTSKNHFFLKLNSVTPEDTATYFCARDGGNYRSFAYWGQGTLVTVSA VL: QIVLTQSPPIMSASPGEKVTITCSASSSVSYMYWFQQKPGTSPKLWIYSTFNLASGVPARFSGSGSGTSYSLTISRMEAEDVATYYCQQRSSYPFTFGSGTKLEIK",,~0.6
